Measured values from paper PMC2441640.

Columns and labels:
[1] = target: ORF3 protein fused to enhanced cyan fluorescent protein (ECFP-ORF3) (hepatitis E virus); assay: FRET or BRET
[2] = target: Pyst1 fused to enhanced yellow fluorescent protein (EYFP-Pyst1) (UniProt Q16828); assay: FRET or BRET
UniProt Q16828, sequence (Q16828 whole entry, the tested form may be a part): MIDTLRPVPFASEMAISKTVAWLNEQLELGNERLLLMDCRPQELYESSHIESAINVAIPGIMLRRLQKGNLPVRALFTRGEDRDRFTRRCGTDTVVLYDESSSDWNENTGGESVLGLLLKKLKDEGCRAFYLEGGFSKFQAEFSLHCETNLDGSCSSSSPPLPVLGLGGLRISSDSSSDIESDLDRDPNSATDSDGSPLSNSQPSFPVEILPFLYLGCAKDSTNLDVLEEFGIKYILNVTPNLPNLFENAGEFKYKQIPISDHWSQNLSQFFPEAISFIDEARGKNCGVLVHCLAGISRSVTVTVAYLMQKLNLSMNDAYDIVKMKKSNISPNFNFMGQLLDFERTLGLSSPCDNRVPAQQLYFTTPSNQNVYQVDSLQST

Q: Which results are given for “ORF3 protein fused to enhanced cyan fluorescent protein (ECFP-ORF3) (natural protein)”?
A: percent FRET efficiency (region of colocalization) [1]: 26.4%; percent FRET efficiency (region of colocalization) [2]: 27.8%
